# Experimental data taken from PMC10216145.
# Biological target: thrombin (UniProt P00734;P00734 328-363;364-622)
# Test: electrochemical aptasensor (DPV); immobilized aptamer; signal suppression on thrombin binding; LOD 0.26 fM, range 1.0 fM to 1.0 uM (abstract), not a Kd; Thrombin incubation 40 min at ambient temperature, wash with PBS; DPV in 25 mM PBS pH 7.0, -0.1 to 0.5 V
binder,measurement,value
"GGTTGGTGTGGTTGG (ssDNA, 5'-SH-(CH2)6) [TBA (thrombin aptamer)]",binding result,binds
